Results taken from paper PMC4876437, “Novel application of hydrophobin in medical science: a drug carrier for improving serum stability” (Scientific Reports, 2016).

How the values were obtained:
[1] = target: wild-type hydrophobin protein (HGFI)
[2] = target: hydrophobin E24K (mutated at the 24th residue)
[3] = test system: dipeptidyl peptidase IV (DPP-IV); settings: cited from earlier work
Source text: The extremely poor serum stability renders the therapeutic administration of GLP-1 impractical; therefore, many efforts have focused on altering the pharmacokinetic properties of GLP-1 by developing a series of complexes and analogs, such as exenatide, liraglutide and albiglutide. […] In ad ...

[4] = test system: insulin secretion; assay: Insulin stimulation assay after oral glucose administration; type: in vivo; settings: Wistar rats, s.c. 100 μg GLP-1/kg 30 min before oral glucose 10 g/kg, n = 3 per group, mean ± SE
Method: The insulin secretion assay was performed by injecting the complex (100 μg GLP-1/kg body weight) into male Wistar rats (n = 3 per group). Wild-type GLP-1 (100 μg/kg body weight) and saline were injected subcutaneously as controls. Glucose (10 g/kg body weight, a standard dose for oral glucose administration) was orally administered 30 min after injections of the complexes. […] Blood samples were assayed for insulin levels using a rat insulin RIA kit.

[5] = Stabilization (serum stability / pharmacokinetic) study: circulating free GLP-1 in rats by GLP-1 (7-37) ELISA; type: in vivo; settings: Wistar rats, s.c., 500 μg GLP-1/kg, n = 6 per group
Method: The stabilities of wild-type hydrophobin/GLP-1 and hydrophobin E24K/GLP-1 complexes were investigated to determine whether the complex protects GLP-1 against protease degradation. Two complexes, hydrophobin/GLP-1 (pH 7.0, molar ratio of 1:10) and hydrophobin E24K/GLP (pH 4.0, molar ratio of 1:10) were administered subcutaneously to male Wistar rats (500 μg GLP-1/kg body weight, n = 6 per group), and blood samples from the rats were directly drawn into P700*, K2EDTA tubes (BD Biosciences, Franklin Lakes, NJ) by venipuncture at 0.5, 1, 4, 12, 24, 48, 72 and 96 h. Serum samples (200 μl) were immediately analyzed using a native GLP-1 (7-37) ELISA kit after being centrifuged for 20 min at 13,000 rpm. The amount of free GLP-1 measured in this assay was considered an indicator of the serum serum stability of the complex.

[6] = test system: blood glucose; assay: Single-dose glucoregulatory assay (glucose tolerance test); type: in vivo; settings: Wistar rats, GLP-1 alone, glucose 2 g/kg i.p.
[7] = test system: blood glucose and HbA1c; assay: Long-term anti-diabetic activity (glucose, HbA1c) over 46 days; type: in vivo; settings: ZDF rats, 250 μg/kg body weight every three days, glucometer
Method: Male ZDF rats (n = 11 per group) were treated with complex (250 μg/kg/3 days) for the entire experimental period (46 days). The control groups were injected with wild-type GLP-1 (250 μg/3 days). HbA1c levels were assessed using a DCA 200 analyzer (Bayer Diagnostics), and glucose levels were monitored during the experimental period.

[8] = test system: INS-1 cells; assay: cAMP accumulation measurement (HTRF); type: cell-based, rat
Method: For the cAMP assay, INS-1 cells (1.0 × 10^5 cells) were seeded and plated in each well of a 96-well opaque white plate. […] Subsequently, 10 μg of GLP-1 or complex was added. The assay plate was treated with 2.5 μl/well cAMP and an equal volume of anti-cAMP conjugate (Cisbio) after a 1 h incubation. The homogenous time-resolved fluorescence (HTRF) signal was read on a SpectraMax M5 (Molecular Device) microplate reader. The ratio of […] at 665 nm and 620 nm (×10,000) was calculated and plotted.

Substance	AUC of free GLP-1 in the serum of Wistar rats within 96 h after subcutaneous injection of the complex, fold over GLP-1 alone (GLP-1 (7-37) ELISA) [1]	AUC of free GLP-1 in the serum of Wistar rats within 96 h after subcutaneous injection of the complex, fold over GLP-1 alone (GLP-1 (7-37) ELISA) [2]	renal clearance (time) ([3]; in vivo)	lifetime in vivo ([3]; native GLP-1, in vivo, inactivation by DPP-IV)	serum stability of GLP-1 ([3]; rapid degradation by DPP-IV)	insulin level at 5 min after oral glucose [4]	time after administration at which circulating GLP-1 was undetectable [5]	blood glucose in single-dose glucose tolerance test [6]	long-lasting glucose regulatory effect [7]	peak cellular cAMP level ([8]; INS-1 cells 1.0 × 10^5, 500 μM IBMX, 10 μg GLP-1, at 2 min, HTRF, mean ± SE)	time at which cAMP declined to baseline ([8]; INS-1 cells, HTRF-cAMP kit)	time of cAMP peak ([8]; INS-1 cells, HTRF-cAMP kit)
glucagon-like peptide-1 (GLP-1)	6.3 fold	3 fold										
glucagon-like peptide-1 [GLP-1]			less than 10 min	< 2 min	3 to 5 min	827.09 ± 37.77 pmol/L	4 h	remained at high levels	failed to produce a similar glucose regulatory effect	17.03 ± 0.94 pmol/10^5 cells	10 min	2 min
